Data reported in patent EP2899279A1.

B1: Nb23 (His6-tagged, purified from E. coli) (VHH)
VHH: QVQLQESGGGSVQVGGSLRVACAASGDTFSGYLAAWFRQAPGKGREGVAAINSKRHTTSYADSVKGRFTISKDNADNIMYLEMNSLKPEDTAIYYCAAADAIGLAEYWSTPTLSAARYKYWGQGTQVTVSS
B2: Nb23:EGFP fusion protein (Nb23:EGFP:His6, expressed in E. coli) (protein, part only; not given: EGFP and cloning residues, not shown: large carriers)
chain, part: QVQLQESGGGSVQVGGSLRVACAASGDTFSGYLAAWFRQAPGKGREGVAAINSKRHTTSYADSVKGRFTISKDNADNIMYLEMNSLKPEDTAIYYCAAADAIGLAEYWSTPTLSAARYKYWGQGTQVTVSSGGGSGGGHHHHHH

How the values were obtained:
[1] = molecular target: T1, Grapevine fanleaf virus strain F13 (purified viral particles) (Grapevine fanleaf virus, strain F13) (UniProt P18474); assay: dynamic light scattering: GFLV-F13 at 0.1 mg/ml with Nb23 at 0.1 mg/ml; virus alone 32 nm
T1 sequence (looked up): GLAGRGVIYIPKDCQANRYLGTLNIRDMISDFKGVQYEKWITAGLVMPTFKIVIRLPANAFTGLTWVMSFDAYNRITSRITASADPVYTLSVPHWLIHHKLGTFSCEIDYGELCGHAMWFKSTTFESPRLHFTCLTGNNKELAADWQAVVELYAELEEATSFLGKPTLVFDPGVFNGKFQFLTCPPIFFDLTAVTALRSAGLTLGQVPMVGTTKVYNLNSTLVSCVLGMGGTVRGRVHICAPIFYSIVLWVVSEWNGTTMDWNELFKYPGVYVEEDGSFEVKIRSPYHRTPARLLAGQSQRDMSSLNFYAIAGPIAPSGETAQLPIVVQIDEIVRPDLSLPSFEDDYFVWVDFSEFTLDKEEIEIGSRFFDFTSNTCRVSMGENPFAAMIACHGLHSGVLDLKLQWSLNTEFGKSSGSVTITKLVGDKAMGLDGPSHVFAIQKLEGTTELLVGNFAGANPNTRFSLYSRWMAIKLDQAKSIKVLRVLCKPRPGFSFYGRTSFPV

[2] = molecular target: T1, Grapevine fanleaf virus strain F13 (purified viral particles) (Grapevine fanleaf virus, strain F13); assay: dynamic light scattering: GFLV-F13 at 0.1 mg/ml with Nb23:EGFP at 0.9 mg/ml; virus alone 32 nm

| Binder | average hydrodynamic diameter of viral particles in the presence of the binder [1] | average hydrodynamic diameter of viral particles in the presence of the binder [2] |
| --- | --- | --- |
| B1 | 37.8 nm | – |
| B2 | – | 43.8 nm |
